Test results published in patent US20240116984A1 (UNIVERSITY OF NOTRE DAME DU LAC, published 2024).
Starred links: 1 amine or outer side, 2 acyl side, 3 side chain; linkers in the order of their positions; H or OH if unused. Non-standard residues stand in square brackets, D forms with d. Primed or numbered codes have the meaning given here. aTyr = Tyr with backbone N-amino (N-aminated amide nitrogen), NN([C@@H](Cc1ccc(O[*:3])cc1)C(=O)[*:2])[*:1]; aIle′ = Ile with backbone N-amino (N-aminated amide nitrogen), CC[C@H](C)[C@@H](C(=O)[*:2])N(N)[*:1]; aVal = Val with backbone N-amino (N-aminated amide nitrogen), CC(C)[C@@H](C(=O)[*:2])N(N)[*:1]; N(NH2)Lys = NCCCC[C@H](NN)C(=O)O

B1: Compound 2, Ac-Val-Gln-aIle-Ile-Asn-Lys-NH2 (peptide)
peptide: Ac-VQ[aIle′]INK-NH2
SMILES: CC[C@H](C)[C@H](NC(=O)[C@H]([C@@H](C)CC)N(N)C(=O)[C@H](CCC(N)=O)NC(=O)[C@@H](NC(C)=O)C(C)C)C(=O)N[C@@H](CC(N)=O)C(=O)N[C@@H](CCCCN)C(N)=O
B2: Compound 12, Ac-Val-Gln-aIle-Val-aTyr-Lys-NH2 (peptide)
peptide: Ac-VQ[aIle′]V[aTyr]K-NH2
SMILES: CC[C@H](C)[C@@H](C(=O)N[C@H](C(=O)N(N)[C@@H](Cc1ccc(O)cc1)C(=O)N[C@@H](CCCCN)C(N)=O)C(C)C)N(N)C(=O)[C@H](CCC(N)=O)NC(=O)[C@@H](NC(C)=O)C(C)C
B3: Compound 4, Ac-aVal-Gln-aIle-Ile-Asn-Lys-NH2 (peptide)
peptide: Ac-[aVal]Q[aIle′]INK-NH2
SMILES: CC[C@H](C)[C@H](NC(=O)[C@H]([C@@H](C)CC)N(N)C(=O)[C@H](CCC(N)=O)NC(=O)[C@H](C(C)C)N(N)C(C)=O)C(=O)N[C@@H](CC(N)=O)C(=O)N[C@@H](CCCCN)C(N)=O
B4: Compound 13, Ac-Val-Gln-Ile-aVal-Tyr-aLys-NH2 (peptide)
peptide: Ac-VQI[aVal]Y[N(NH2)Lys]-NH2
SMILES: CC[C@H](C)[C@H](NC(=O)[C@H](CCC(N)=O)NC(=O)[C@@H](NC(C)=O)C(C)C)C(=O)N(N)[C@H](C(=O)N[C@@H](Cc1ccc(O)cc1)C(=O)N(N)[C@@H](CCCCN)C(N)=O)C(C)C
B5: Compound 5, Ac-aVal-Gln-Ile-Val-Tyr-Lys-NH2 (peptide)
peptide: Ac-[aVal]QIVYK-NH2
SMILES: CC[C@H](C)[C@H](NC(=O)[C@H](CCC(N)=O)NC(=O)[C@H](C(C)C)N(N)C(C)=O)C(=O)N[C@H](C(=O)N[C@@H](Cc1ccc(O)cc1)C(=O)N[C@@H](CCCCN)C(N)=O)C(C)C
B6: Compound 6, Ac-Val-Gln-aIle-Val-Tyr-Lys-NH2 (peptide)
peptide: Ac-VQ[aIle′]VYK-NH2
SMILES: CC[C@H](C)[C@@H](C(=O)N[C@H](C(=O)N[C@@H](Cc1ccc(O)cc1)C(=O)N[C@@H](CCCCN)C(N)=O)C(C)C)N(N)C(=O)[C@H](CCC(N)=O)NC(=O)[C@@H](NC(C)=O)C(C)C

Molecular target: Human tauP301L (0N4R), recombinant, N-terminal His tag (human, UniProt P10636 2-758)
Sequence (P10636 other isoform, or with tags, fused parts or gaps): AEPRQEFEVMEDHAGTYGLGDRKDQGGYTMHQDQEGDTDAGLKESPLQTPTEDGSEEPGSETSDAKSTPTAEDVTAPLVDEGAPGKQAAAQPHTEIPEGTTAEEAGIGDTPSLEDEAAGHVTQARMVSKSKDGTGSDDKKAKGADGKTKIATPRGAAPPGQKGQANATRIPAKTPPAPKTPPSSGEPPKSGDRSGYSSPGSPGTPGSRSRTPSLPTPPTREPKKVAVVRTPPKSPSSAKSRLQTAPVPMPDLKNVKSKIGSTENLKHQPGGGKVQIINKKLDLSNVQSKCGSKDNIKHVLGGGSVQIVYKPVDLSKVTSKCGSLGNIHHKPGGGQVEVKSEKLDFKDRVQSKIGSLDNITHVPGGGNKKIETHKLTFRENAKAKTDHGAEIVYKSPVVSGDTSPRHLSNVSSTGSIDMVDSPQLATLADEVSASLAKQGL
Assay: cell-based or functional assay

| end-point ThT fluorescence of heparin-induced tau aggregation (Tau 10 µM: Inhibitor 20 µM, 48 h) [%] | fibril capping IC50 in cells (mature tauP301L fibrils incubated 36 h with inhibitor, then HEK293 tau-RD(LM)-YFP cells) [µM] | Binder |
| --- | --- | --- |
| ≤ 50 |  | B1 |
| ≤ 50 | ~5 | B2 |
| ≤ 50 |  | B3 |
| ≤ 50 | ~5 | B4 |
| ≤ 50 |  | B5 |
| ≤ 50 |  | B6 |
